Test: yeast display, Sf9 membrane polyspecificity reagent, FACS + sequencing; frameworks hold sequencing errors
Method in brief: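 After 36–48 hours of galactose induction, yeast (Saccharomyces cerevisiae BJ5465) displaying a synthetic nanobody library were stained at 4 °C for 1 hour with 10% biotinylated, detergent-solubilized Sf9 membrane reagent. Streptavidin microbeads enriched the stained cells before FACS sorting into low and high (top ~1%) gates on anti-HA and streptavidin fluorescence. Each clone's polyreactivity label reflects its gate of origin.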

Sequence | polyreactivity (PSR sort gate)
QVQLVESGGGLVQAGGSNRLSCAASGFTFYRNVMGWYRQAPGKERELVAARTWNGGTTYYADSEKGRFTISRDTAKSSVYLQMDSLQREDTAVYFCAAASRHTGSYRFYYWGQGTQVTVSS | high polyreactivity
QVQHVESGVGLVQAGGSLRLSCAASGRIFVFYTMGWYIQAPGKERELVARISSGGSKNYADSVKGRFTISRDNAKNTVYLQMNSLKPEDTAVYYCNAAYARGRAGYYYWGQGTQVTVSS | high polyreactivity
QVQLVESVGGLVQAGGSLRLSCAASGFIFWPYAMGWSRQAPGKERELVAGITSDGSTHYADSVKGRFTISRDNAKNTVYLQINSLKPQDTAVYYCAKGIRYGYRVRVYYWGQGTQVTVSS | high polyreactivity
QVQLVESGGGLVQAGGSLRLSCAASGFIFRWYTMGWYRQAPGKERELVAAISWRSGSTSYADSVMGRFTISRDNAKNTVYFQMNSLKPEDSAGYYCNADYSSFWTSYDYWGQGTQVTVSS | high polyreactivity
QVQLVESVGGLVQAGGSLRLSCAASGFTFRRYAMGWYRQAPGKERELVAAISYSGGITYYADSVKGRFTISRDNAKNTVYLQMNSLKPEDTAVYYCAADYFAPYKTYEYWGQGTQVTVSS | high polyreactivity
QVQLVESGGGLVQAGGSLRLSCAASGLIFSSYVMGWYRQAPGKERELVAAISSKGGSTYYADSVKGRFTISRDNAKNTVYLQMNSLKPEDTAVYYCAARVYYPVRYGYWGQGTQVTVSS | high polyreactivity
QVQLVESGGGLVQAGGSLRLSCAASGSTFDYNTMGWYRQAPGKERELVAAISWRGVSTYYADSVKGRFTISRDNAKNTVYLQMNSLKTEDTAVYYCNAVHHYPEHIGGGYWGQGTQVTVSS | low polyreactivity
QVQLVESGGGLVQAGGSLRLSCAASGLTFYWYAMGWYRQAPGKERELVAAITSTGSTYYADSVKGRFTISRDNAKNTVYLQMNSLKPEDTAVYYCNADFPANWGWDYDYWGQGTQVTVSS | low polyreactivity
QVQLVESGGGLVQAGGSLRLSCAASGSTFYTYAMGWYRQAPGKERELVAAISWSGGSTYYADSVKGRFTISRDNAKNTVYLQMNSLKPEDTAVYYCAADRPYAGRYWKGYHSALYDYWGQGTQVTVSS | low polyreactivity
QVQLVESGGGLVQAGVSLRISCAASGSTFRGYVMGWYRPAPGKERELVAAISRSGTSTYYADSVKGRFTISRDNAKNTVYLQINSLKPEDTAVYYCAAQLYGHGEDYWGQGTQVTVSS | high polyreactivity
QVQLVESAGGLVQAGGSLRLSCPASGSTFTFNAMGWYRQAPGKERELVADITSGGRTNYADSVKGRFTISRDNAKNTVYLQMNSLKPEDTAVYYCAARWWAHEYPGYDSWGQGTQVTVSS | low polyreactivity
QVQLVESGGGLVQEGGILPLSCAASGFIFGDYVMGWYRQAPGKERELVAAINRNGGRTYYADSVKGRFTISRDYAKNTVYLQMNSLKPEDTAVFYCAAVFRSDRYHWYYYWGQGTQVTVSS | high polyreactivity
QVQLVESCGGLVQAGGSLRVSCAASGITFDGYAMGSYRQAPGKERELVAAITRRGGNTYYADSVKGRFTISRDNAKNTVHLQLNSQKPEDTAFYYCNAQVVHYRVSSVITYTIYDYSGQGTQVTVSS | high polyreactivity
QVQLVESGGGLVQAGGSLRLSCAASGSIFGINAMGWYRQAPGKERELVAAITWSGGSTFYADSVKGRFTISRDNAKNTVYLQMNSLKPEDTAVYYCAASYSRWYWLYTSDYWGQGTQVTVSS | high polyreactivity
QVQLVESGGGLVQAGGSLRLSCAASGFIFFKYAMGWYRQAPGKERELVAGITSGGSTYYADSVKGRFTISRDNAKNTVYLQMNSLKPEDTAVYYCAAYVKRESAPYGYWGQGTQVTVSS | low polyreactivity
QVQLVESGRGLVQAGGSLRLSCAPSGFTFHNNVMGWYRQAPGKERELVATISKSGGSTYYADSVKGRFTISRDNAKNTVYLQMNSLKPEDTAVYYCARRYRDYGRYGYWGQGTQVTVSS | high polyreactivity
QVQLVESAGGLVQAGGSLRLSCAASGFTFRYYAMGWYRQAPGKERELVAAISWSGGRTYYADSVKWRLTISRDNANNTVYLQMNSLKPEDTADYYCAADGYQYFYGDFDYWGQGTQVTVSS | high polyreactivity
QVQLVESGGGLVQAGGRLRLSCAASGRTFGYYTMGWYRQAPGKERELVATIRWSGGSTYADSVKGRFTISRDNANNTVYLQMNSLKPEDTAVYYCARRLFSWGAPFGYWGQGTQVTVSS | high polyreactivity
QVQLVESGGGLVQAGGSLRLSCAASGFTFYTNAMGWYRPAPWKERELVAAIYARTGRTYYADSVKGRFTISRDNAKNTVFLQMNSLKPEDTAVYYCAKDRQSSSTDYGYWGQGTQVTVSS | high polyreactivity
QVQLVESGGGLVQAGGSLRLSCAASGSIFLEYAMGWYRQAPGKERELVAAISSSGGSTYYADSVKGRFTISRDNAKYTVYLQMNSLKPEDTAVYYCAAGGHYYSSPGYNYWGQGTQVTVSS | high polyreactivity
QVQLVESGGGLVQAGGSLPLSCASYGSIIVGNVMGWYRQAPGKESELVAAMTSSGTSTFYADSVKGRFTNSRDIAKNTVYLQMNSLKPEVTAVYYCAVDLYWSYFNGSLGYRYYFWGQGTQLTVSS | high polyreactivity
QVHLVESGGGLVQPGGSLRLSCAASGSTFQTYAMVWYRQAPGKERELVAAITSGGSTNYADSVKGRFTISRDNAKNTVYLQMNSVYPEVTAVYFCAVRQIYQTSDHRLQYDYWGQGTQVTVSS | low polyreactivity

Sequence | polyreactivity (PSR sort gate)
QVQLVESGGGLVQAGGSLRLSCAASGRTFAWNTMGWYRQAPGKERELLAAISGSGGSTYYADSVKGRFTISRDYAKNTVYLQMNSLKPEDTAVYYCARRVDSYYGHTLYYYWGQGTQVTVSS | high polyreactivity
QVQLVESGGGLVQAGGSLRLSCAASGSTLASYAMGWYKQAPGKERELVAAISRGGGSTFYADSVKGRFTISRDNAKNTVYLQMNSLKPEDTAVYYCAAFGRYYYIYDYWGQGTQVTVSS | high polyreactivity
QVQLVESGGGLVQAGGSLRLSCAASGYTFQTNTMGWYRQAPGKERELVAAITDGDSTNYADSVKGRFTISRDNAKNTVYLQMNSLKPEDTAVYYCAAQYYYSEAGMDYWGQGTQVTVSS | low polyreactivity
QVQLVESGGGLVQAGGSLRLSCAASGRTFTQYAMGWYRQAPGKERELVARISYSGGTTYYADSVKGRFTISRDNAKNTVYLQMNSLKPEDNAVYYCAKARVVAGYDYWGQGTQVTVSS | high polyreactivity
QVQLVESGGGLVQAGGSLRLSCAASGFSFGIYAMGWYRQAPGKERELYADSVKGRFTISRDNAKNTVYLQMNSLKPEDTAVYYCAADYWYGAGLPHGTEFDYWGQGTQVTVSS | low polyreactivity
QVQLVESGGGLVQAGGSLRLSCAASGRIFDKNAMGWYRQAPGKERELVAAINRSGGRTYYADSVKGRFTISRDNAKNTVYLQMNSLKPEDTAVYYCAADTQGSRYDYWGQGTQVTVSS | high polyreactivity
QVQLVESGGGLVQAGGSLRLTCAASGSTFYIYAMGWYRQAPGKERELVARISGSGGSTYYADSVKGRFTISRDNAKNTVYLQMNSLKPEDTAVYYCAADDIYKYYQYYAFPYYRYDYWGQGTQVTVSS | low polyreactivity
QVQLVESGGGLVQAGGSLRLSCAASGRIFGHYVMGWYRQAPGKERELVAGISSGGITYYADSVKGRFTISRDNAKNTVYLQMNSLKPEDTAVYYCAARVYYVRGSDTMDYWGQGTQVTVSS | low polyreactivity
QVQHVESGGGLVQEGGSLRLSCAASGITFGRNTMGWYRQAPGKERELVAAIDSGGNTYADSVKGRFTISRDNAKNTVYLQMNSLKPVDTAVYSCAVDGGEFSSYGYWGQGTQVTVSS | low polyreactivity
QVQLVESGGGLVQAGGSLRLTCAASGSISGLYTMGWYRQAPGKERELVAAIRWTTGTTYYADSVKGRFTISRDNAKNTVYLQMNSLKPEDTAVYYCNVVTWYYVFRPWEYDYWGQGTQVTVSS | low polyreactivity
QVQLVESGGGLVQAGGSLRLSCADSGSTFYRYGMASSRHAPGKERELVAAISWRGGITYYADSVKGRFTISRENAMHTVYLQRNSLKPQDSAVYYCAADGPYTGDGALDYWGQGTQVTVSS | high polyreactivity
QGQLVESGGGLVQAGGSLRLSCAASGFNFRRYAMGWYRHAPGKERELVAVITSGGSTYYADSVKGRFTISRDYAKNTVYLQMNSLKPEDTAVYYCASRYYWYSQEYVLSSWWGDYWGLGTQVTVSS | high polyreactivity
QVQLVESGGGLVQAGGSLRLSCAASGFIFYRNALGWYRQAPGKERELVAVIRWSGTSTSYADSVKGRFTISRDNAKNTVYLQMNSLKPEDTAVYYCNAAWYDLYGDSDGDDYWGQGTQVTVSS | low polyreactivity
QDQLVESCGGLVQAGGSLRLICAAYGRIISINAMGWYRQAPVKERELVATISWRGGSTYYADSVKGRFTISRDNAKNTVYLQMNSLKPEDTAVYYCKKVFSERWARYFRYDYWVQGTQVTVSS | high polyreactivity
QVQLVESGGGLVQAGGSLRLSCAASGRTILHYAMGWYSQAPGKERELVASISSGVSTHYADSVKGRFTISRDNAKNTVYLQMNSLIPEDTAVYDCAARPYRIGRYGYDYDYWGQGTQVTVSS | high polyreactivity
QVQLVESGGGLVQAGGSLRLSCAASGSIFYRNAMGWYRQAPGKERELVAAITSSGGSTYYADSVKGRFTISRDNAKYTVYFQMNSLKPEDTAVYYCNSVVTKFAKCRFLYYYWGQGTQVTVSS | high polyreactivity
QVQLVESGGGLVQAGGSLRISCAASGRTFFGNAMGWYRQAPGKERELGASISTRGGSTYYADSVKGRFTISRDNAKNTVYLQINSLKPADTAVYDCAAPSQSRGYYYWGQGTQVNVSS | high polyreactivity
QVQLVESGGGLVQAGGSLRLSCAASGRTFSAYAMGWYRQAPGKERELVARITSVDSTNYADSVKGRFTISRDNAKNTVYLLMNSLKPEDTAVYYCNATFGYPFVDYDDYWGQGTQVTVSS | low polyreactivity
QVQLVDSGGGLVQAGGSLRLSCAASGFIFGYYAMGWYRPAPGKERELVAAISQSTGSTYYADSVKGRFTISRDNAKNTVYLQMNSLKPEDTAVYYCNAEGPEFTTWGYVYWDWGYGYWGQGTQVTVSS | low polyreactivity
QVQLVESGGGLVQAGGSLRLSCAASGSIYRQYAMGWSRPAPGKERELVAASRRGTSTYYADSVKGRFTLSRDNAKNTVYLHMNSLKPDDSAVYYCAADTSWYSWWFDYWGQGTQVTVSS | low polyreactivity
QVQLVESGGGLVQAGGSLRLSCAASGLTFYPYAMGWSRQAPGKERELVAAINWSGTTTYYADSVKGRFTISRDNAKNTVYLQMNSLKPEDTAVYYCNADVYYEPTTGYYLWDYDYWGQGTQVTVSS | low polyreactivity
